Assay results: article PMC3673994 (PLoS ONE, 2013)

Target: T1, human mtRNase P (TRMT10C-SDR5C1 and PRORP) (Homo sapiens, UniProt Q7L0Y3+Q99714)
T1 construct: made in house; host or cells: E. coli
T1 sequence (Q99714 1-261): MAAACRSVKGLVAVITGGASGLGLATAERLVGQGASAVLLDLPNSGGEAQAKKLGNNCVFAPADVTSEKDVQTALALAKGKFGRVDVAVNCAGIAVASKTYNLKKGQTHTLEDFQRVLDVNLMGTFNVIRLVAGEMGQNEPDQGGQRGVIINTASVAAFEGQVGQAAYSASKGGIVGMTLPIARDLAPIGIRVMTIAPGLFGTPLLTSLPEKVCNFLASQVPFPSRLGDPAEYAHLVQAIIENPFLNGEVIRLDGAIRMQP
T1 sequence (Q7L0Y3 40-403 partner): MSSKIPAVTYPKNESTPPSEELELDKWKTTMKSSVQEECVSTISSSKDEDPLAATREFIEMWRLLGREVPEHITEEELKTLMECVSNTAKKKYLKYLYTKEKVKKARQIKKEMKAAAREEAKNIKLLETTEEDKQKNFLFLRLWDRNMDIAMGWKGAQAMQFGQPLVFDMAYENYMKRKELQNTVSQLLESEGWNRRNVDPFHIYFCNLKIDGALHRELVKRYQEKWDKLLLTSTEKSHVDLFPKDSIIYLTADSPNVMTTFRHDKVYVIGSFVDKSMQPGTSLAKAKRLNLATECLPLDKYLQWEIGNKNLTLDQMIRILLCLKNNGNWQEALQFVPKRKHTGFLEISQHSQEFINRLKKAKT
Assay: RNase P assay, (mt)tRNA^His precursor cleavage
Assay type: biochemical
Conditions: freshly dissolved fragments, up to 10 µM; three independent experiments
From the text: Samples for analysis were withdrawn at defined intervals or at known linear-range time-points and phosphor imaging data quantitatively analyzed with ImageQuant TL 7 (GE Healthcare).

effect on tRNA 5′-end processing by mtRNase P | Substance
none of the two affected | Aβ25–35: synthetic Aβ peptide fragment corresponding to amino acids 25–35 (rPeptide) (GSNKGAIIGLM; Amyloid-beta protein 40; UniProt P05067 696-706, looked up, fragment)
none of the two affected | Aβ1–28: synthetic Aβ peptide fragment, amino acids 1–28 (rPeptide)
